The target in assay [1] is P-eIF2α (human eIF2α amino acids 1-185 solubility mutant, C-terminal His6-tag, phosphorylated on Ser51) (human) (UniProt P05198). The experiment in a line: thermophoresis.
Target sequence in this assay (P05198 other isoform, or with tags, fused parts or gaps mutant): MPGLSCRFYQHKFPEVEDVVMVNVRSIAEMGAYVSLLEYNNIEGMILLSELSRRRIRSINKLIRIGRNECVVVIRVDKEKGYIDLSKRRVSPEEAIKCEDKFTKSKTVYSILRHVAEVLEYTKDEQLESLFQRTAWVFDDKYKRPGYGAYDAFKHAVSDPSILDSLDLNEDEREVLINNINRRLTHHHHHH
The target of assay [2] is PP1c (human PP1cα amino acids 7-330, N-terminal Thio6/His6 tag) (human) (UniProt P62136). The experiment in a line: thermophoresis (MST), labelled PP1c, unlabelled R15A titrated.
For assay [3] the target is unchanged. Kind of assay: thermophoresis.
The target of assay [4] is P-eIF2α (human eIF2α amino acids 1-185 solubility mutant, C-terminal His6-tag, phosphorylated on Ser51) (human) (UniProt P05198). Kind of assay: thermophoresis (MST), labelled P-eIF2α with 10 µM R15B, unlabelled PP1c^D95A titrated.
For assay [5] the target is unchanged. The experiment in a line: thermophoresis (MST), labelled P-eIF2α with 10 µM R15A, unlabelled PP1c^D95A titrated.
For assay [6] the target is unchanged. The experiment in a line: thermophoresis (MST), labelled P-eIF2α, unlabelled PP1c^D95A titrated.

Chain of PP1c (human PP1cα amino acids 7-330, N-terminal Thio6/His6 tag) (human) (P62136 other isoform, or with tags, fused parts or gaps): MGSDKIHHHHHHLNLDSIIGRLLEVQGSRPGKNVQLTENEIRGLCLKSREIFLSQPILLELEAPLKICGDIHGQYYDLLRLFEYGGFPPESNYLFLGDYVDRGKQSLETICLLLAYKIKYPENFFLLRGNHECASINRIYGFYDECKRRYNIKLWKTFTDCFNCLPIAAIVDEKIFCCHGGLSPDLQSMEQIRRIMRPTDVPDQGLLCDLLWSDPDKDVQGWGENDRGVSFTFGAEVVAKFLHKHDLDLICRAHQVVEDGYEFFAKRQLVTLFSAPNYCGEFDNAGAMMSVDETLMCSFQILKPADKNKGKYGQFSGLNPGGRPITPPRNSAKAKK

As to “R15A (human PPP1R15A amino acids 325-636, N-terminal MBP-tag, C-terminal His6-tag) (from UniProt O75807 325-636)”, the Kd – broadly, the free concentration of one partner at which half of the binding sites on the other are occupied at equilibrium, for simple one-to-one binding – in assay [1] was 340 nM; in assay [2] it was 60 nM.

Consider “R15B (human PPP1R15B amino acids 340-698, N-terminal MBP-tag, C-terminal His6-tag) (from UniProt Q5SWA1 340-698)”, for which, in assay [1], the Kd turned out to be 550 nM. As for “R15A^C (human PPP1R15A amino acids 513-636, N-terminal MBP-tag, C-terminal His6-tag) (from UniProt O75807 513-636)”, the Kd in assay [3] was 190 nM.

As to “R15B-PP1c^D95A holophosphatase complex (from UniProt P0AEX9 27-392; Q5SWA1 340-698; P62136 7-330)”, the fold higher affinity than the isolated PP1c^D95A in assay [4] was 3 times. The substance “R15A-PP1c^D95A holophosphatase complex (from UniProt O75807 325-636; P62136 7-330)” gave a fold higher affinity than the isolated PP1c^D95A in assay [5] of 5.4 times. In turn, “R15B^N (human PPP1R15B amino acids 340-635, N-terminal MBP-tag, C-terminal His6-tag) (from UniProt Q5SWA1 340-635)” had a Kd in assay [1] of 530 nM. For “R15A^N (human PPP1R15A amino acids 325-512, N-terminal MBP-tag, C-terminal His6-tag) (from UniProt O75807 325-512)”, in assay [1], the Kd was 440 nM. On to “PP1c^D95A (human PP1cα amino acids 7-330, D95A, N-terminal Thio6/His6 tag) (from UniProt P62136 7-330) (enzyme)”, for which the Kd in assay [6] worked out at 650 nM.

For the origin of these results see patent US20200199647A1, “ASSAY FOR SCREENING MODULATORS OF HOLOPHOSPHATASE ACTIVITY” (UNITED KINGDOM RESEARCH AND INNOVATION, priority 2017, published 2020).
